Data on six molecules can be found in paper PMC8964759, “Exploring a blue-light-sensing transcription factor to double the peak productivity of oil in Nannochloropsis oceanica”.

To fix the notation:
T1: MBP-NobZIP77 (Nannochloropsis oceanica, UniProt A0A8F2IEU3 1-466)
T1 sequence: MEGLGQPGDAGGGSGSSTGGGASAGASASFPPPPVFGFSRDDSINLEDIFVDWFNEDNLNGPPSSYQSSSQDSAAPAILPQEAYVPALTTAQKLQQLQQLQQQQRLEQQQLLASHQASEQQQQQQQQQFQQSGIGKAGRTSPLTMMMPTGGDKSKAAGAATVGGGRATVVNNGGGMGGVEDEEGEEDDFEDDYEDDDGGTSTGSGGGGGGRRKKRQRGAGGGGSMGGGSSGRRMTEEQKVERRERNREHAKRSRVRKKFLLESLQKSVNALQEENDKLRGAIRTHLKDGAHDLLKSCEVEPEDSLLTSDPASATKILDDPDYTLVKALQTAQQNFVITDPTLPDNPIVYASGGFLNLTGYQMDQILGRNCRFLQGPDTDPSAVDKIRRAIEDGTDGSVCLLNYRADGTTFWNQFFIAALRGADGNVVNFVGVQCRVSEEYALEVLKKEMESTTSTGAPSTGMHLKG

B1: g9477 (actin) control probe (dsDNA)
DNA 1: TTCGATAAATGGGGCCGATAAGTGAGGGAAGATGATTTGAGTAAAGTA
DNA 2: TACTTTACTCAAATCATCTTCCCTCACTTATCGGCCCCATTTATCGAA
B2: g2171 (PAP) promoter probe (dsDNA)
DNA 1: ACCGCTCCTTACGTGGTTAACATCACCGCTCCTTACGTGGTTAACATC
DNA 2: GATGTTAACCACGTAAGGAGCGGTGATGTTAACCACGTAAGGAGCGGT
B3: g4867 (hsp70) control probe (dsDNA)
DNA 1: TGTGGGGCCTCAGATAAAGGTGCGGCACGTAGGGAGAGACATTG
DNA 2: CAATGTCTCTCCCTACGTGCCGCACCTTTATCTGAGGCCCCACA
B4: g5641 (FAE) promoter probe (dsDNA)
DNA 1: TGGATTGATGGACGTGGAAGCAGCTGGATTGATGGACGTGGAAGCAGC
DNA 2: GCTGCTTCCACGTCCATCAATCCAGCTGCTTCCACGTCCATCAATCCA
B5: g10411 (lipase; also written g10041) promoter probe (dsDNA)
DNA 1: TCCAACACGTCGGCCTCCCAAACGCAATTTTGAGGCATGGACGTGGAAAGGG
DNA 2: CCCTTTCCACGTCCATGCCTCAAAATTGCGTTTGGGAGGCCGACGTGTTGGA
B6: g3857 (TAG-lipase) promoter probe (dsDNA)
DNA 1: TGGGCTCGGACGCGACGCGGGCTTTGGGCTCGGACGCGACGCGGGCTT
DNA 2: AAGCCCGCGTCGCGTCCGAGCCCAAAGCCCGCGTCGCGTCCGAGCCCA

The target of the first series is T1, MBP-NobZIP77. Put plainly: EMSA; LightShift Chemiluminescent EMSA kit binding buffer (composition, salt and pH not stated), 30 min; light series: 5 nM probe, 25 °C, 60 min, NobZIP77 1:2 dilutions from 24 mM (so in the source); 6% native PAGE at 4 °C. The settings on record: protein: recombinant; tags: MBP (pMAL-p4X); chain copies: 2; label: 5' biotin; blunt. On the technique in general: Mobility shift assays separate free from complexed probe on a gel.
Consider B1, for which the binding result is “no binding”.

Take B2: the binding result is reported as “binds”.

As for B3, the binding result is given as “no binding”.

Regarding B4, the binding result is given as “binds”.

The target of another series is T1, MBP-NobZIP77. As to the kind of experiment: EMSA; shift reduced by 100-fold unlabeled promoter DNA; LightShift Chemiluminescent EMSA kit binding buffer (composition, salt and pH not stated), 30 min; light series: 5 nM probe, 25 °C, 60 min, NobZIP77 1:2 dilutions from 24 mM (so in the source); 6% native PAGE at 4 °C. The settings on record: protein: recombinant; tags: MBP (pMAL-p4X); chain copies: 2; label: 5' biotin; blunt.
As for B5, the binding result was “binds”.

Regarding B6, the binding result is “binds”.
